From publication PMC5118228 (EJNMMI Research, 2016)

Test: in vivo
Settings: male, athymic nu/nu, mouse, iv, total radioactivity
[1] = 0.3 nmol, uptake in Red blood cell
[2] = 1 nmol, uptake in Red blood cell
[3] = 3 nmol, uptake in Red blood cell

C[C@@H](O)[C@H](NC(=O)[C@@H]1CSSC[C@H](NC(=O)[C@@H](Cc2ccccc2)NC(=O)CN2CCN(CC(=O)O)CCN(CC(=O)O)CCN(CC(=O)O)CC2)C(=O)N[C@@H](Cc2ccc(O)cc2)C(=O)N[C@H](Cc2c[nH]c3ccccc23)C(=O)N[C@@H](CCCCN)C(=O)N[C@@H]([C@@H](C)O)C(=O)N1)C(=O)O [^111In-DOTATATE, metal not drawn]
tissue uptake at 0.05 h (0.3 nmol, uptake in Pituitary): 0.3 %ID/g
tissue uptake at 10 min (0.3 nmol, uptake in Pituitary): 0.2 ± 0.05 %ID/g
tissue uptake at 0.5 h (0.3 nmol, uptake in Pituitary): 0.1 %ID/g
tissue uptake at 1 h (0.3 nmol, uptake in Pituitary): < 0.05 %ID/g
tissue uptake at 0.05 h (0.3 nmol, uptake in Plasma): 13.4 ± 1.4 %ID/g
tissue uptake at 10 min (0.3 nmol, uptake in Plasma): 7.2 ± 2 %ID/g
tissue uptake at 0.5 h (0.3 nmol, uptake in Plasma): 3.4 ± 0.5 %ID/g
tissue uptake at 1 h (0.3 nmol, uptake in Plasma): 0.7 ± 0.2 %ID/g
tissue uptake at 0.05 h [1]: 2.6 ± 0.6 %ID/g
tissue uptake at 10 min [1]: 1.3 ± 0.4 %ID/g
tissue uptake at 0.5 h [1]: 0.6 ± 0.1 %ID/g
tissue uptake at 1 h [1]: < 0.05 %ID/g
tissue uptake at 10 min (0.3 nmol, uptake in Stomach): 3.9 ± 0.4 %ID/g
tissue uptake at 0.5 h (0.3 nmol, uptake in Stomach): 3.5 ± 0.2 %ID/g
tissue uptake at 1 h (0.3 nmol, uptake in Stomach): 3.4 ± 0.8 %ID/g
tissue uptake at 10 min (0.3 nmol, uptake in Tumor): 8 ± 1.2 %ID/g
tissue uptake at 0.5 h (0.3 nmol, uptake in Tumor): 9.9 ± 3 %ID/g
tissue uptake at 1 h (0.3 nmol, uptake in Tumor): 9.9 ± 0.7 %ID/g
tissue uptake at 0.5 h (1 nmol, uptake in Adrenals): 0.5 ± 0.09 %ID/g
tissue uptake at 1 h (1 nmol, uptake in Adrenals): 0.5 ± 0.05 %ID/g
tissue uptake at 0.05 h (1 nmol, uptake in Kidney): 17.5 ± 9.7 %ID/g
tissue uptake at 10 min (1 nmol, uptake in Kidney): 14.2 ± 7 %ID/g
tissue uptake at 0.5 h (1 nmol, uptake in Kidney): 6 ± 1.8 %ID/g
tissue uptake at 1 h (1 nmol, uptake in Kidney): 14.1 ± 3.4 %ID/g
tissue uptake at 0.05 h (1 nmol, uptake in Muscles): 1.2 ± 0.4 %ID/g
tissue uptake at 10 min (1 nmol, uptake in Muscles): 1 ± 0.5 %ID/g
tissue uptake at 0.5 h (1 nmol, uptake in Muscles): 0.2 ± 0.09 %ID/g
tissue uptake at 1 h (1 nmol, uptake in Muscles): < 0.05 %ID/g
tissue uptake at 0.05 h (1 nmol, uptake in Pancreas): 3.5 ± 2.4 %ID/g
tissue uptake at 0.5 h (1 nmol, uptake in Pancreas): 0.7 ± 0.2 %ID/g
tissue uptake at 1 h (1 nmol, uptake in Pancreas): 1.5 ± 0.3 %ID/g
tissue uptake at 0.05 h (1 nmol, uptake in Pituitary): 0.1 ± 0.09 %ID/g
tissue uptake at 10 min (1 nmol, uptake in Pituitary): 0.8 ± 1.4 %ID/g
tissue uptake at 0.5 h (1 nmol, uptake in Pituitary): < 0.05 %ID/g
tissue uptake at 1 h (1 nmol, uptake in Pituitary): < 0.05 %ID/g
tissue uptake at 0.05 h (1 nmol, uptake in Plasma): 11.3 ± 4.9 %ID/g
tissue uptake at 10 min (1 nmol, uptake in Plasma): 7.6 ± 3.1 %ID/g
tissue uptake at 1 h (1 nmol, uptake in Plasma): 0.6 ± 0.2 %ID/g
tissue uptake at 0.05 h [2]: 2.3 ± 0.4 %ID/g
tissue uptake at 10 min [2]: 1.3 ± 0.5 %ID/g
tissue uptake at 0.5 h [2]: 0.3 ± 0.1 %ID/g
tissue uptake at 1 h [2]: 0.4 ± 0.1 %ID/g
tissue uptake at 0.05 h (1 nmol, uptake in Stomach): 2.4 ± 1.1 %ID/g
tissue uptake at 0.5 h (1 nmol, uptake in Stomach): 0.8 ± 0.2 %ID/g
tissue uptake at 0.05 h (1 nmol, uptake in Tumor): 5.6 ± 2 %ID/g
tissue uptake at 10 min (1 nmol, uptake in Tumor): 6.7 ± 2.9 %ID/g
tissue uptake at 0.5 h (1 nmol, uptake in Tumor): 2.9 ± 0.6 %ID/g
tissue uptake at 1 h (1 nmol, uptake in Tumor): 7 ± 1.1 %ID/g
tissue uptake at 10 min (3 nmol, uptake in Adrenals): 1.1 ± 0.7 %ID/g
tissue uptake at 0.5 h (3 nmol, uptake in Adrenals): 0.6 ± 0.2 %ID/g
tissue uptake at 1 h (3 nmol, uptake in Adrenals): 0.3 ± 0.06 %ID/g
tissue uptake at 0.05 h (3 nmol, uptake in Kidney): 19.1 ± 3.1 %ID/g
tissue uptake at 10 min (3 nmol, uptake in Kidney): 14.6 ± 2.9 %ID/g
tissue uptake at 0.5 h (3 nmol, uptake in Kidney): 14.5 ± 1.1 %ID/g
tissue uptake at 1 h (3 nmol, uptake in Kidney): 14.7 ± 2.1 %ID/g
tissue uptake at 0.05 h (3 nmol, uptake in Muscles): 1.3 ± 0.3 %ID/g
tissue uptake at 10 min (3 nmol, uptake in Muscles): 0.8 ± 0.3 %ID/g
tissue uptake at 0.5 h (3 nmol, uptake in Muscles): 0.3 ± 0.1 %ID/g
tissue uptake at 1 h (3 nmol, uptake in Muscles): < 0.05 %ID/g
tissue uptake at 0.05 h (3 nmol, uptake in Pancreas): 2.2 ± 0.4 %ID/g
tissue uptake at 10 min (3 nmol, uptake in Pancreas): 1.6 ± 0.2 %ID/g
tissue uptake at 0.5 h (3 nmol, uptake in Pancreas): 1 ± 0.2 %ID/g
tissue uptake at 1 h (3 nmol, uptake in Pancreas): 0.8 ± 1 %ID/g
tissue uptake at 0.05 h (3 nmol, uptake in Pituitary): 0.2 ± 0.06 %ID/g
tissue uptake at 10 min (3 nmol, uptake in Pituitary): 0.1 ± 0.06 %ID/g
tissue uptake at 0.5 h (3 nmol, uptake in Pituitary): 0.08 ± 0.06 %ID/g
tissue uptake at 1 h (3 nmol, uptake in Pituitary): < 0.05 %ID/g
tissue uptake at 0.05 h (3 nmol, uptake in Plasma): 13.8 ± 1.7 %ID/g
tissue uptake at 10 min (3 nmol, uptake in Plasma): 8.4 ± 0.9 %ID/g
tissue uptake at 1 h (3 nmol, uptake in Plasma): 0.6 ± 0.2 %ID/g
tissue uptake at 10 min [3]: 2.4 ± 0.3 %ID/g
tissue uptake at 0.5 h [3]: 0.6 ± 0.2 %ID/g
tissue uptake at 1 h [3]: < 0.05 %ID/g
tissue uptake at 0.05 h (3 nmol, uptake in Stomach): 3.2 ± 0.5 %ID/g
tissue uptake at 10 min (3 nmol, uptake in Stomach): 2.3 ± 0.2 %ID/g
tissue uptake at 0.5 h (3 nmol, uptake in Stomach): 1.5 ± 0.6 %ID/g
tissue uptake at 1 h (3 nmol, uptake in Stomach): 1.6 ± 0.7 %ID/g
tissue uptake at 0.05 h (3 nmol, uptake in Tumor): 2.9 ± 1.1 %ID/g
